According to US11795488B2, “Methods for enzymatic peptide ligation” (NANYANG TECHNOLOGICAL UNIVERSITY, priority 2016, dated 2023):

What was measured:
[1] = tested on: peptide "[…]" (SEQ ID NO: 19); test: Peptide cyclization assay of butelase 1; assay type: biochemical; details: butelase 1 extracted from plant, peptide GLPVSTKPVATRNHV
Procedure: Native and modified amino acids were purchased from Sigma-Aldrich (USA). All peptides used in this manuscript were synthesized in-house using the solid-phase method and HPLC purified. Cyclization assays were performed in 50-μl reaction mixtures containing 20 mM phosphate buffer, ligases (5 to 700 nM) and peptide substrates (10 to 300 μM). Each reaction was performed in triplicate at 37° C. and quenched by adding 5 μl of 1 M HCl solution. The peptides were separated by using a reversed-phase C18 analytical column (150×2.1 mm, Vydac) with a linear gradient from 10% to 50% acetonitrile over 15 min on a Nexera UHPLC system (Shimadzu). For kinetic analysis, the concentrations of WT OaAEP1, mutant OaAEP1, and butelase 1 were fixed at 700 nM, 50 nM, and 20 nM, respectively. The cyclization velocities were calculated by converting the HPLC-peak areas of remained linear precursors or the cyclized products into concentrations. The identity of each HPLC peak was analyzed by MALDI-TOF MS (ABI 4800 MALDI TOF/TOF). […] Comparison for the cyclization efficiency of various OaAEP1 mutants were performed in a volume of 20 μl of the reaction mixture and analyzed by MALDI-TOF MS after 10 mins or 1 hour ligation reaction.
The peptide cyclization activity of mature OaAEP1 was then analyzed using MS and the peptide substrate “[…]” (SEQ ID NO: 18) (FIG. 5A). […]

[2] = tested on: ubiquitin with C-terminal Asn-Gly-Leu and peptide having N-terminal residues GlyLeu; test: Ligation of ubiquitin with a peptide; assay type: biochemical
Procedure: (§1) (a) Fluorescence detection using 02 benzylcytosine-Alexa647 of the SNAP protein and SDS PAGE analysis with Comassie blue staining detection of the protein substrate and ligated products. The reaction is schematically depicted as inset. Cys247Ala ligates well folded protein well. […] (b) As little as 30 nM Cys247Ala catalyze ligation of 100 μM Ubiquitin and 500 μM biotin labelled peptide efficiently in 30 min, at room temperature, in pH 7.4 PBS buffer.
(§2) The ability of Cys247Ala to ligate ubiquitin with a peptide was first tested. The three residues“Asn-Gly-Leu” were added to the C-terminus of ubiquitin to make it recognizable by Cys247Ala. Another peptide having N-terminal residues GlyLeu was used as the add-on component. At a protein: peptide molar ratio of 1:5, Cys247Ala catalyzed the ligation of more than 90% ubiquitin with the peptide within 10 min (FIG. 6). An amount of 30 nM of Cys247Ala was enough for the reaction compared to 10-30 μM of sortase A typically required to perform productive ligations. […] Ubiquitin having the same “Asn-Gly-Leu” modification at its C-terminal end and a N-terminal modified SNAP (NEB) tag protein were used as substrates. […] Protein ligation can be performed within minutes at neutral pH and at room temperature.

peptide substrate = test: Comparison of cyclization efficiency of gate-keeper Cys247 mutants (MALDI-TOF MS); assay type: biochemical
Procedure: (§3) Native and modified amino acids were purchased from Sigma-Aldrich (USA). All peptides used in this manuscript were synthesized in-house using the solid-phase method and HPLC purified. Cyclization assays were performed in 50-μl reaction mixtures containing 20 mM phosphate buffer, ligases (5 to 700 nM) and peptide substrates (10 to 300 μM). Each reaction was performed in triplicate at 37° C. and quenched by adding 5 μl of 1 M HCl solution. The peptides were separated by using a reversed-phase C18 analytical column (150×2.1 mm, Vydac) with a linear gradient from 10% to 50% acetonitrile over 15 min on a Nexera UHPLC system (Shimadzu). For kinetic analysis, the concentrations of WT OaAEP1, mutant OaAEP1, and butelase 1 were fixed at 700 nM, 50 nM, and 20 nM, respectively. The cyclization velocities were calculated by converting the HPLC-peak areas of remained linear precursors or the cyclized products into concentrations. The identity of each HPLC peak was analyzed by MALDI-TOF MS (ABI 4800 MALDI TOF/TOF). The velocities were input into GraphPad Prism (GraphPad Software, San Diego) to obtain the Michaelis-Menten curve and the kinetic parameters (kcat and Km). Comparison for the cyclization efficiency of various OaAEP1 mutants were performed in a volume of 20 μl of the reaction mixture and analyzed by MALDI-TOF MS after 10 mins or 1 hour ligation reaction.
The pre-ligation conformation of OaAEP1 captured in the present structure was then analyzed to identify several key features that could differentiate an AEP protease from an AEP-like ligase. […] In contrast to AEP proteases, the surface of OaAEP1 facing the catalytic Cys217 appears to be more widely open. Three cysteine residues (Cys247, Cys250, Cys264) are aligned along a shallow cleft at the surface of the enzyme (FIGS. 3C and 3E). Unlike the surface of AEP proteases that contains several bulges, both butelase 1 (using a homology model based on OaAEP1b) and OaAEP1 have residues with smaller side-chains along this patch. A disulfide bond is formed between Cys250 and Cys264, which are conserved in AEP-like ligases butelase 1 and OaAEP1b. This covalent bond is likely to stabilize the local structure and provide an adequate surface allowing the approach of an N-terminal amine incoming group. Conversely, the corresponding surface patch of AEP proteases (PDB: 4AWA) is lined with residues having bulky side-chains like Tyr (FIG. 3E) blocking this channel. It was therefore hypothesized that residue Cys247 which is located at the extremity of the substrate channel is likely to function as a final nucleophile filter (or “gate-keeper”), allowing attack from the N-terminal amine to complete the ligation reaction. […]

HEK293T = test: Cell surface labeling with fluorescently tagged SNAP protein; assay type: cell-based, human; details: 10 μM SNAP-NGL, 0.1 μM Quicklase, 30 minutes˜1 hour
Procedure: (§4) (b) Fluorecently tagged SNAP (New England Biolabs) protein was conjugated to the intrinsic cellular surface proteins of two different cell lines, RAW cell ([…]) and HEK293T (human epithelial cell line). 10 μM modified SNAP protein (with additional C-terminal NGL residues, lane 1 sample) with or without (lane 2 and lane 5 samples) coincubation of 0.1 μM Quicklase were added to cell culture, pre-washed with PBS buffer. After 30 minutes˜1 hour incubation, cells were rinsed with additional PBS buffer (lane 3 and lane 6 were first wash samples), two times. The remaining cell was harvested and lysed with SDS loading buffer (lane 4 and 7 samples). All samples were examined using SDS-PAGE, and only the covalently fluorescently tagged SNAP protein carried the signal on the gel, which were shown as dark bands in (b). […] (c) Surface modified RAW cells were examined using a fluorescent microscope, bright spots on the cellular surface indicated successful surface labelling of intrinsic cellular membrane.
(§5) 0.1 to 1 μM of OaAEP1 Cys247Ala was added to cellular culture in standard cell culture conditions. 1-20 μM labeling protein tags were added to the reaction afterwards, and incubated for 30-45 mins at 37° C. and standard culturing condition, before both excess enzymes and labelling tags were washed away. […]

RAW cell = test: as above; assay type: cell-based, human; details: 10 μM SNAP-NGL, 0.1 μM Quicklase, 30 minutes˜1 hour
Procedure: as §4, §5

[3] = tested on: peptide substrate "GLPVSTKPVATRNGL" (SEQ ID NO: 18); test: Peptide cyclization assay, kinetic analysis (HPLC/MS); assay type: biochemical
Procedure: as §3
The peptide cyclization activity of mature OaAEP1 was then analyzed using MS and the peptide substrate “[…]” (SEQ ID NO: 18) (FIG. 5A). The turn-over rate (kcat) for OaAEP1 is 0.052 s^−1, a value in good agreement with the previous report (Harris, K. S., et al., Nat Commun, 2015. 6: p. 10199). Likewise, the cyclization activity of butelase 1 extracted from plant was measured using the 15 residues peptide “[…]” (SEQ ID NO: 19) (FIG. 5A) leading to a kcat about 90 times faster than OaAEP1 b.

[4] = tested on: ubiquitin and SNAP tag protein; test: Ligation of two well-folded proteins; assay type: biochemical
Procedure: as §1, §2

[5] = tested on: ubiquitin with C-terminal Asn-Gly-Leu and peptide having N-terminal residues GlyLeu; details: comparison value; cited from earlier work

B1: butelase 1: AEP1 from Clitoria ternatea, Asx peptide ligase extracted from plant, SEQ ID NO:4 (protein, listed as Clitoria ternatea)
chain: IRDDFLRLPSQASKFFQADDNVEGTRWAVLVAGSKGYVNYRHQADVCHAYQILKKGGLKDENIIVFMYDDIAYNESNPHPGVIINHPYGSDVYKGVPKDYVGEDINPPNFYAVLLANKSALTGTGSGKVLDSGPNDHVFIYYTDHGGAGVLGMPSKPYIAASDLNDVLKKKHASGTYKSIVFYVESCESGSMFDGLLPEDHNIYVMGASDTGESSWVTYCPLQHPSPPPEYDVCVGDLFSVAWLEDCDVHNLQTETFQQQYEVVKNKTIVALIEDGTHVVQYGDVGLSKQTLFVYMGTDPANDNNTFTDKNSLGTPRKAVSQRDADLIHYWEKYRRAPEGSSRKAEAKKQLREVMAHRMHIDNSVKHIGKLLFGIEKGHKMLNNVRPAGLPVVDDWDCFKTLIRTFETHCGSLSEYGMKHMRSFANLCNAGIRKEQMAEASAQACVSIPDNPWSSLHAGFSV
- kcat relative to OaAEP1b [1]: about 90 times

B2: Cys247Ala: OaAEP1 Cys247Ala (Quicklase), Asx-specific peptide ligase having the amino acid sequence of SEQ ID NO:1 (protein, listed as Ovaloparmena affinis)
chain: MVRYLAGAVLLLVVLSVAAAVSGARDGDYLHLPSEVSRFFRPQETNDDHGEDSVGTRWAVLIAGSKGYANYRHQAGVCHAYQILKRGGLKDENIVVFMYDDIAYNESNPRPGVIINSPHGSDVYAGVPKDYTGEEVNAKNFLAAILGNKSAITGGSGKVVDSGPNDHIFIYYTDHGAAGVIGMPSKPYLYADELNDALKKKHASGTYKSLVFYLEACESGSMFEGILPEDLNIYALTSTNTTESSWAYYCPAQENPPPPEYNVCLGDLFSVAWLEDSDVQNSWYETLNQQYHHVDKRISHASHATQYGNLKLGEEGLFVYMGSNPANDNYTSLDGNALTPSSIVVNQRDADLLHLWEKFRKAPEGSARKEEAQTQIFKAMSHRVHIDSSIKLIGKLLFGIEKCTEILNAVRPAGQPLVDDWACLRSLVGTFETHCGSLSEYGMRHTRTIANICNAGISEEQMAEAASQACASIP
- enzyme concentration that catalyzes ligation efficiently ([2]; 100 μM Ubiquitin, 500 μM biotin labelled peptide, 30 min, room temperature, pH 7.4 PBS): 30 nM
- ubiquitin ligated with the peptide ([2]; protein: peptide molar ratio 1:5, within 10 min): more than 90%
- amount of enzyme enough for the reaction ([2]; ubiquitin-peptide ligation): 30 nM
- alternative reaction when N-terminal amine is not available (peptide substrate; N-terminal amine group acetylated): side chain ligation is more preferred
- ligase activity compared to WT OaAEP1 (peptide substrate; gate-keeper position 247 mutants): significantly improved enzymatic properties
- conjugation of SNAP protein to intrinsic cellular surface proteins (HEK293T): significant amount of intrinsic proteins in RAW and HEK283T cells were conjugated with SNAP protein
- conjugation of SNAP protein to intrinsic cellular surface proteins (RAW cell): significant amount of intrinsic proteins in RAW and HEK283T cells were conjugated with SNAP protein
- kcat relative to WT OaAEP1b [3]: approximately 160 times
- peptide ligase catalytic activity relative to wild type OaAEP1 [3]: ~160 times
- protein ligation activity (control ligation experiments) [4]: protein ligation activity could only be observed in the presence of the Cys247Ala protein
- individual substrate proteins ligated into a single polypeptide product ([4]; 5 μM SNAP tag protein, 8 μM ubiquitin, 100 nM enzyme): more than 60%
- ligation of SNAP tag protein with Ubiquitin ([4]; 5 μM SNAP tag, 100 nM Cys247Ala, 4000 nM wild type OaAEP1b): efficiently ligated

B3: sortase A: bacterial sortase commonly used to catalyze transpeptidation reactions; recognizes LPXTG (protein, UniProt Q2FV99 1-206, looked up)
Sortase A: MKKWTNRLMTIAGVVLILVAAYLFAKPHIDNYLHDKDKDEKIEQYDKNVKEQASKDKKQQAKPQIPKDKSKVAGYIEIPDADIKEPVYPGPATPEQLNRGVSFAEENESLDDQNISIAGHTFIDRPNYQFTNLKAAKKGSMVYFKVGNETRKYKMTSIRDVKPTDVGVLDEQKGKDKQLTLITCDDYNEKTGVWEKRKIFVATEVK
- amount of enzyme typically required to perform productive ligations [5]: 10 to 30 µM
